According to the supplement of paper PMC10567573:

B1: INTS3 (parent)
chain: EEITEESLEESVGKPLYLIFRNLC

Variants of: B1
Assay: protein stability index of a GFP-peptide fusion (GPS, HEK-293T) (PSI 1-6); higher = more stable
Settings: c terminus: a fixed tail appended
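Also: lentivirally expressed fusions sorted by FACS into six bins by GFP to DsRed ratio, PSI derived from sequencing read proportions per bin multiplied by bin number.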

Protein stability index: each site, then its substitutions
P15: A 1.25 | C 2.05 | E 2.14 | N 2.29 | I 2.17 | S 2.02 | D 3.32 | H 2.24 | Y 1.74 | W 2.06 | F 1.97 | T 2.06 | M 2 | Q 1.52 | V 1.77 | R 2.12 | L 1.85 | G 2 | K 1.93
V12: W 2.47 | G 3.12 | F 2.56 | T 3.13 | I 2.51 | E 3.36 | P 2.94 | K 3.54 | M 2.26 | R 2.86 | S 3.54 | L 2.5 | Y 2.36 | N 2.95 | D 3.63 | A 3.26 | C 2.55 | H 3.28 | Q 3.34
I3: E 3.82 | P 3.2 | Y 2.1 | N 3.25 | D 3.3 | W 2.18 | M 3.29 | C 2.65 | K 3.04 | S 2.84 | T 2.9 | V 3.16 | R 2.94 | F 2.79 | A 3.14 | H 3.67 | Q 3.36 | G 3.13 | L 3
K14: G 2.96 | H 3.2 | V 2.6 | M 2.48 | D 3.48 | A 2.96 | W 2.39 | Y 2.47 | P 3.67 | F 2.25 | L 3.3 | T 3.38 | N 3.52 | S 2.94 | Q 3.19 | C 3.5 | R 3.31 | I 2.78 | E 3.54
E6: V 1.76 | S 2.27 | N 2.29 | R 1.99 | K 1.8 | F 2.23 | M 2 | H 2.44 | Y 2.39 | Q 2.56 | I 2.06 | A 2.01 | T 2.02 | P 2.49 | L 1.69 | D 2.7 | G 2.38 | C 1.83 | W 1.96
S7: I 2.47 | W 2.46 | E 2.77 | G 2.75 | F 2.33 | P 3.02 | L 2.33 | M 2.47 | V 3.02 | R 2.98 | K 2.55 | C 2.56 | T 3.13 | Y 2.15 | Q 2.83 | A 2.88 | D 2.87 | H 3.13 | N 2.98
I19: P 4.17 | C 3.62 | M 3.06 | F 2.3 | H 3.85 | N 3.92 | E 3.9 | K 3.66 | A 3.73 | G 3.67 | L 2.86 | D 3.89
E2: R 2.93 | I 1.91 | Q 2.52 | L 2.11 | V 2.35 | P 2.51 | W 1.74 | M 2.1 | N 2.9 | T 2.68 | H 2.32 | F 2.38 | C 2.48 | D 2.86 | S 2.58 | G 2.56 | K 2.02 | Y 1.69
G13: E 3.12 | V 1.98 | D 2.88 | L 2.23 | F 2.28 | R 2.7 | K 2.44 | S 2.36 | H 2.23 | C 2.37 | Q 3.11 | W 1.79 | M 2.5 | T 2.46 | I 1.81 | Y 2.14 | P 3.31 | N 2.64 | A 2.88
L8: C 3.3 | R 3.09 | W 1.95 | P 3.11 | I 2.47 | K 3.42 | S 3.48 | F 2.57 | M 2.86 | H 3.26 | N 3.34 | D 3.35 | T 3.42 | V 3.15 | A 3.46 | E 3.2 | G 3.21 | Q 3.32 | Y 2.97
Y17: S 2.85 | L 2.28 | M 2.85 | R 2.61 | W 2.84 | F 2.73 | D 4.25 | A 3.32 | T 3.22 | K 4.07 | H 3.69 | N 3.46 | P 4.11 | G 3.59 | E 3.33 | I 2.62 | V 2.68 | C 3.12 | Q 2.92
L16: V 2.93 | T 3.23 | I 2.56 | R 3.38 | A 2.99 | G 3.38 | W 2.41 | S 3.29 | M 2.92 | F 3.35 | N 3.62 | Y 2.78 | H 3.09 | K 3.39 | C 2.68 | P 3.52 | D 4.26 | E 3.26 | Q 3.69
E9: L 2.93 | G 2.72 | P 2.18 | W 2.09 | M 2.28 | Y 1.96 | F 2.05 | C 2.25 | D 2.77 | I 2.14 | A 2.97 | N 2.3 | H 2.35 | S 2.3 | K 2.5 | V 2.14 | R 2.41 | Q 2.44 | T 2.54
T4: D 3.38 | K 2.46 | Q 2.71 | W 1.68 | F 2.01 | V 2.3 | C 2.46 | I 1.98 | R 2.3 | S 2.4 | L 2.28 | E 2.41 | Y 2.29 | P 2.77 | H 2.99 | N 2.83 | M 2.23 | A 2.52 | G 2.66
E10: Y 2.23 | I 1.77 | L 2.07 | K 2.5 | T 2.55 | G 2.82 | V 2.09 | M 2.24 | N 2.78 | S 2.79 | C 1.96 | H 2.25 | W 2.21 | P 2.36 | A 2.64 | D 3.09 | R 2.24 | Q 2.67 | F 1.92
E5: K 2.31 | I 1.56 | T 2.37 | Q 2.37 | S 2.5 | Y 2.03 | C 2.14 | D 2.72 | N 2.64 | H 2.62 | V 1.72 | W 1.85 | L 2.1 | P 1.98 | G 2.09 | A 2.4 | R 1.96 | M 1.89 | F 1.61
S11: G 2.9 | A 2.57 | C 2.34 | T 2.79 | L 2.51 | E 2.55 | I 2.52 | D 3.03 | N 2.96 | H 2.56 | V 2.32 | K 2.61 | W 2.4 | R 2.71 | Y 2.58 | F 2.57 | Q 3.33 | P 2.36 | M 2.8
L18: R 2.82 | Y 2.93 | S 3.37 | H 3.4 | N 3.38 | A 2.92 | W 2.16 | M 3.38 | F 2.3 | C 2.7 | K 3.1 | P 3.69 | Q 3.21 | T 3.37 | I 2.72 | G 3.71 | D 3.35 | E 3.12 | V 2.7
